Results published in PMC2714593, “Insights into the role of Val45 and Gln182 of Escherichia coli MutY in DNA substrate binding and specificity”.
Residue numbers refer to the chain shown, from its start.

Legend:
EcMutY V45A = biological target: T1, EcMutY V45A (Escherichia coli, UniProt P17802 1-350, V45A); test: EMSA; 20 mM Tris-HCl pH 7.6, 80 mM NaCl, 1 mM DTT, 1 mM EDTA, 2.9% glycerol, 20 ng poly dI/dC per 20 ul, 0.09 nM labeled DNA, 30 min at 30 C; 4% PAGE in TBE; conditions: protein: recombinant; label: 5'-32P on X strand; blunt; T/G mismatch at strand 1 position 22
T1 sequence: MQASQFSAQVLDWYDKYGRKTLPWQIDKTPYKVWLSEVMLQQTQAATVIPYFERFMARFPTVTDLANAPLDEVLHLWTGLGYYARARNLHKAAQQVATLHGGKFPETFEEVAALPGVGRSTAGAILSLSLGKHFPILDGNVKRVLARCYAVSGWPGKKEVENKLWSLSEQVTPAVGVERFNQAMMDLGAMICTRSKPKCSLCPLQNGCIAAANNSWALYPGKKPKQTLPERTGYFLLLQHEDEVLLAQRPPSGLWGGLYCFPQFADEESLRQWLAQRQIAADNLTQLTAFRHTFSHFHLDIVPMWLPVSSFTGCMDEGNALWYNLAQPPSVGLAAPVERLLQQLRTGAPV

EcMutY Q182L = biological target: T2, EcMutY Q182L (Escherichia coli, UniProt P17802 1-350, Q182L); test: as above; conditions: protein: recombinant; label: 5'-32P on X strand; blunt; T/G mismatch at strand 1 position 22
T2 sequence: T1 sequence with A45V, Q182L

B1: T/G 44-mer (dsDNA)
DNA 1: AATTGGGCTCCTCGAGGAATTTGCCTTCTGCAGGCATGCCCCGG
DNA 2: CCGGGGCATGCCTGCAGAAGGCGAATTCCTCGAGGAGCCCAATT
Question: How did the Kd (EcMutY V45A) turn out when B1 was run?
Answer: Its Kd is 0.011 ± 0.004 nM.

Question: And the Kd (EcMutY Q182L)?
Answer: Its Kd is 0.043 ± 0.014 nM.
